Source: patent publication US20230002480A1

Key:
Experiment in all cases: cell-based or functional assay
[1] = target: HIV-1 Env of pseudovirus CNE52 (HIV-1)
[2] = target: HIV-1 Env of pseudovirus HIV-16055-2.3 (HIV-1)
[3] = target: HIV-1 Env of pseudovirus ZM53M.PB12 (HIV-1)
[4] = target: HIV-1 Env of pseudovirus 191084 B7-19 (HIV-1)
[5] = target: HIV-1 Env of pseudovirus 235-47 (HIV-1)
[6] = target: HIV-1 Env of pseudovirus Ce2060_G9 (HIV-1)
[7] = target: HIV-1 Env of pseudovirus 1054_07_TC4_1499 (HIV-1)
[8] = target: HIV-1 Env of pseudovirus CAP45.2.00.G3 (HIV-1)
[9] = target: HIV-1 Env of pseudovirus ZM249M.PL1 (HIV-1)
[10] = target: HIV-1 Env of pseudovirus WITO4160.33 (HIV-1)
[11] = target: HIV-1 Env of pseudovirus Ce2010_F5 (HIV-1)
[12] = target: HIV-1 Env of pseudovirus 6811.v7.c18 (HIV-1)
[13] = target: HIV-1 Env of pseudovirus 191955_A11 (HIV-1)
[14] = target: HIV-1 Env of pseudovirus BJOX009000.02.4 (HIV-1)
[15] = target: HIV-1 Env of pseudovirus 6244_13_B5_4576 (HIV-1)
[16] = target: HIV-1 Env of pseudovirus Du156.12 (HIV-1)
[17] = target: HIV-1 Env of pseudovirus R3265.c06 (HIV-1)
[18] = target: HIV-1 Env of pseudovirus ZM247v1(Rev-) (HIV-1)
[19] = target: HIV-1 Env of pseudovirus WEAU_d15_410_787 (HIV-1)
[20] = target: HIV-1 Env of pseudovirus T278-50 (HIV-1)
[21] = target: HIV-1 Env of pseudovirus 9004SS_A3_4 (HIV-1)

B1: N49P23 (antibody, V domains shown)
VH: QVRLVQSGAGARKTGASMKLSCSTSGYTFTTHHGHFINWVRQARGQGLEWMGWMNPMTGQMNIEGKFQGRVTLTRDIYSDTAYMEMTRLTTGDTGTYYCARGDFGQNYPFHYWGQGSLVIVSS
VL: LSALTQPASVSGSPGQSVTISCSGTNRYLVSWYQQHPDKAPKLIIYDDNKRPSGISDRFSASRPDDTASLTISGLQTGDEATYWCASYERFGGGTRLTVLS
IC50 [1]: 0.014 µg/mL
IC80 [1]: 0.051 µg/mL
MPI [1]: 100
IC50 [2]: > 50 µg/mL
IC80 [2]: > 50 µg/mL
MPI [2]: 17
IC50 [3]: 0.135 µg/mL
IC80 [3]: 0.651 µg/mL
MPI [3]: 100
IC50 [4]: 0.013 µg/mL
IC80 [4]: 0.043 µg/mL
MPI [4]: 100
IC50 [5]: 0.085 µg/mL
IC80 [5]: 0.749 µg/mL
MPI [5]: 90
IC50 [6]: 0.18 µg/mL
IC80 [6]: 0.849 µg/mL
MPI [6]: 99
IC50 [7]: 0.272 µg/mL
IC80 [7]: 1.21 µg/mL
MPI [7]: 100
IC50 [8]: > 50 µg/mL
IC80 [8]: > 50 µg/mL
MPI [8]: 0
IC50 [9]: > 50 µg/mL
IC80 [9]: > 50 µg/mL
MPI [9]: 2
IC50 [10]: 0.045 µg/mL
IC80 [10]: 0.205 µg/mL
MPI [10]: 100
IC50 [11]: 1.59 µg/mL
IC80 [11]: 11.6 µg/mL
MPI [11]: 91
IC50 [12]: 17.7 µg/mL
IC80 [12]: > 50 µg/mL
MPI [12]: 61
IC50 [13]: > 50 µg/mL
IC80 [13]: > 50 µg/mL
MPI [13]: 31
IC50 [14]: > 50 µg/mL
IC80 [14]: > 50 µg/mL
MPI [14]: 8
IC50 [15]: 0.151 µg/mL
IC80 [15]: 0.57 µg/mL
MPI [15]: 100
IC50 [16]: > 50 µg/mL
IC80 [16]: > 50 µg/mL
MPI [16]: 0
IC50 [17]: > 50 µg/mL
IC80 [17]: > 50 µg/mL
MPI [17]: 0
IC50 [18]: > 50 µg/mL
IC80 [18]: > 50 µg/mL
MPI [18]: 24
IC50 [19]: 0.009 µg/mL
IC80 [19]: 0.031 µg/mL
MPI [19]: 100
IC50 [20]: > 50 µg/mL
IC80 [20]: > 50 µg/mL
MPI [20]: 22
IC50 [21]: 0.043 µg/mL
IC80 [21]: 0.223 µg/mL
MPI [21]: 100

B2: N49P22 (antibody, V domains shown)
V domain 1: HIQLLQSGPQVKKSGDTVRISCETSGYNFVDSRIHWVRQTPEKRLRWMGWINPLQGGVNYAPEFQGRIRMTRDTFIDTVYVDLSGLTPADTAYYYCARGIDGKSYPFHFWGHGTRVTVFS
V domain 2: RFALTQPASVSGSPGQTITITCAGGSVSWFHFPPGKTPRLIIYESSKRPSGVSPRFSGSQSGSTASLIISGLQSDDEGTYFCSILEFFGRGTLVTVLS
IC50 [1]: 1.7 µg/mL
IC80 [1]: 10 µg/mL
MPI [1]: 91
IC50 [2]: 4.66 µg/mL
IC80 [2]: 39.7 µg/mL
MPI [2]: 83
IC50 [3]: 1.2 µg/mL
IC80 [3]: 11.8 µg/mL
MPI [3]: 91
IC50 [4]: 0.343 µg/mL
IC80 [4]: 1.64 µg/mL
MPI [4]: 98
IC50 [5]: 0.037 µg/mL
IC80 [5]: 0.373 µg/mL
MPI [5]: 99
IC50 [6]: > 50 µg/mL
IC80 [6]: > 50 µg/mL
MPI [6]: 19
IC50 [7]: 0.654 µg/mL
IC80 [7]: 2.89 µg/mL
MPI [7]: 100
IC50 [8]: > 50 µg/mL
IC80 [8]: > 50 µg/mL
MPI [8]: 0
IC50 [9]: > 50 µg/mL
IC80 [9]: > 50 µg/mL
MPI [9]: 0
IC50 [10]: 4.86 µg/mL
IC80 [10]: > 50 µg/mL
MPI [10]: 74
IC50 [11]: 2.05 µg/mL
IC80 [11]: 11.7 µg/mL
MPI [11]: 93
IC50 [12]: 1 µg/mL
IC80 [12]: 9.72 µg/mL
MPI [12]: 92
IC50 [13]: > 50 µg/mL
IC80 [13]: > 50 µg/mL
MPI [13]: 9
IC50 [14]: 17.3 µg/mL
IC80 [14]: > 50 µg/mL
MPI [14]: 64
IC50 [15]: 0.565 µg/mL
IC80 [15]: 2.48 µg/mL
MPI [15]: 97
IC50 [16]: > 50 µg/mL
IC80 [16]: > 50 µg/mL
MPI [16]: 4
IC50 [17]: 3.58 µg/mL
IC80 [17]: > 50 µg/mL
MPI [17]: 67
IC50 [18]: > 50 µg/mL
IC80 [18]: > 50 µg/mL
MPI [18]: 11
IC50 [19]: 1.54 µg/mL
IC80 [19]: > 50 µg/mL
MPI [19]: 76
IC50 [20]: > 50 µg/mL
IC80 [20]: > 50 µg/mL
MPI [20]: 25
IC50 [21]: > 50 µg/mL
IC80 [21]: > 50 µg/mL
MPI [21]: 42
